Residue numbers refer to the chain shown, from its start. Numbers in names are those of the source.

This test has as its target T1, TNFR1 (Homo sapiens, UniProt P19438).
T1 chain: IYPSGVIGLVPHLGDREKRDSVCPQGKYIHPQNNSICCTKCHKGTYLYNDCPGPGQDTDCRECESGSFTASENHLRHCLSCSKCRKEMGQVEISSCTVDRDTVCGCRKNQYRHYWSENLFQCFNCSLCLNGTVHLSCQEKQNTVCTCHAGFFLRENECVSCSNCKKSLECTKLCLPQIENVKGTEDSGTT
Kind of test: yeast display SC50.

B1: M58F (designed binder)
chain: SMEEEVEKAAKEYEKKKKEAIEKHLEKLKAKDKEAAERFLKELEEAAKEYAKDEAKTFSEEEAKRRAKKYKEKVLLSELSEEEQKEIKEAEEKLVRTILKYVEEAAK
As to B1, the “apparent Kd (screen)” value was found to be 11.4 nM.

B2: V74I (designed binder)
chain: B1 chain with F58M, V74I
On to B2, for which the “apparent Kd (screen)” value worked out at 0.446 nM.

B3: K64C (designed binder)
chain: B1 chain with F58M, K64C
Turning to B3, the “apparent Kd (screen)” value amounted to 0.79 nM.

B4: T57S (designed binder)
chain: B1 chain with T57S, F58M
As to B4, the “apparent Kd (screen)” value is 1.27 nM.

B5: A67W (designed binder)
chain: B1 chain with F58M, A67W
Turning to B5, the “apparent Kd (screen)” value is 10.4 nM.

B6: E91H (designed binder)
chain: B1 chain with F58M, E91H
As to B6, the “apparent Kd (screen)” value is 4.39 nM.

B7: E26C (designed binder)
chain: B1 chain with E26C, F58M
B7: the “apparent Kd (screen)” value amounted to 0.49 nM.

B8: K85E (designed binder)
chain: B1 chain with F58M, K85E
In the case of B8, the “apparent Kd (screen)” value amounted to 0.446 nM.

B9: A36Y (designed binder)
chain: B1 chain with A36Y, F58M
Consider B9, for which the “apparent Kd (screen)” value is 0.539 nM.

B10: V102K (designed binder)
chain: B1 chain with F58M, V102K
B10: the “apparent Kd (screen)” value came out at 1.27 nM.

B11: I21M (designed binder)
chain: B1 chain with I21M, F58M
B11: the “apparent Kd (screen)” value stood at 0.539 nM.

B12: K56W (designed binder)
chain: B1 chain with K56W, F58M
Regarding B12, the “apparent Kd (screen)” value was determined as 11.4 nM.

B13: L43F (designed binder)
chain: B1 chain with L43F, F58M
As to B13, the “apparent Kd (screen)” value was 13.8 nM.

B14: E12V (designed binder)
chain: B1 chain with E12V, F58M
With B14, the “apparent Kd (screen)” value turned out to be 0.956 nM.

B15: E82W (designed binder)
chain: B1 chain with F58M, E82W
In the case of B15, the “apparent Kd (screen)” value stood at 0.539 nM.

B16: E22R (designed binder)
chain: B1 chain with E22R, F58M
Consider B16, for which the “apparent Kd (screen)” value was determined as 0.446 nM.

B17: E60F (designed binder)
chain: B1 chain with F58M, E60F
B17: the “apparent Kd (screen)” value turned out to be 0.956 nM.

B18: R65I (designed binder)
chain: B1 chain with F58M, R65I
Turning to B18, the “apparent Kd (screen)” value was 1.4 nM.

B19: K48V (designed binder)
chain: B1 chain with K48V, F58M
Turning to B19, the “apparent Kd (screen)” value turned out to be 0.653 nM.

B20: R65P (designed binder)
chain: B1 chain with F58M, R65P
Consider B20, for which the “apparent Kd (screen)” value came out at 20.2 nM.

B21: A47D (designed binder)
chain: B1 chain with A47D, F58M
Take B21: the “apparent Kd (screen)” value was 1.16 nM.

B22: M58S (designed binder)
chain: B1 chain with F58S
Turning to B22, the “apparent Kd (screen)” value was 4.39 nM.

B23: E22S (designed binder)
chain: B1 chain with E22S, F58M
As for B23, the “apparent Kd (screen)” value was 0.539 nM.

B24: R38H (designed binder)
chain: B1 chain with R38H, F58M
With B24, the “apparent Kd (screen)” value was 1.4 nM.

B25: R65T (designed binder)
chain: B1 chain with F58M, R65T
With B25, the “apparent Kd (screen)” value was 2.05 nM.

B26: K107F (designed binder)
chain: B1 chain with F58M, K107F
Regarding B26, the “apparent Kd (screen)” value stood at 3 nM.

B27: K15G (designed binder)
chain: B1 chain with K15G, F58M
As for B27, the “apparent Kd (screen)” value was found to be 0.653 nM.

B28: K52Q (designed binder)
chain: B1 chain with K52Q, F58M
B28: the “apparent Kd (screen)” value came out at 0.718 nM.

B29: L76H (designed binder)
chain: B1 chain with F58M, L76H
B29: the “apparent Kd (screen)” value is 1.69 nM.

B30: L99Q (designed binder)
chain: B1 chain with F58M, L99Q
Turning to B30, the “apparent Kd (screen)” value stood at 11.4 nM.

B31: D32R (designed binder)
chain: B1 chain with D32R, F58M
Regarding B31, the “apparent Kd (screen)” value was 3.99 nM.

B32: L76V (designed binder)
chain: B1 chain with F58M, L76V
For B32, the “apparent Kd (screen)” value came out at 1.4 nM.

B33: K56R (designed binder)
chain: B1 chain with K56R, F58M
Regarding B33, the “apparent Kd (screen)” value was determined as 1.54 nM.

B34: L94K (designed binder)
chain: B1 chain with F58M, L94K
As for B34, the “apparent Kd (screen)” value stood at 1.4 nM.

B35: E14A (designed binder)
chain: B1 chain with E14A, F58M
Take B35: the “apparent Kd (screen)” value turned out to be 3 nM.

B36: R65W (designed binder)
chain: B1 chain with F58M, R65W
Consider B36, for which the “apparent Kd (screen)” value came to 11.4 nM.

B37: K56Q (designed binder)
chain: B1 chain with K56Q, F58M
Consider B37, for which the “apparent Kd (screen)” value came out at 2.73 nM.

B38: K68H (designed binder)
chain: B1 chain with F58M, K68H
In the case of B38, the “apparent Kd (screen)” value is 1.4 nM.

B39: L99S (designed binder)
chain: B1 chain with F58M, L99S
On to B39, for which the “apparent Kd (screen)” value was determined as 11.4 nM.

B40: E91W (designed binder)
chain: B1 chain with F58M, E91W
B40: the “apparent Kd (screen)” value was 6.43 nM.

B41: T97W (designed binder)
chain: B1 chain with F58M, T97W
Take B41: the “apparent Kd (screen)” value worked out at 2.48 nM.

B42: T57E (designed binder)
chain: B1 chain with T57E, F58M
Consider B42, for which the “apparent Kd (screen)” value is 3 nM.

B43: E44Y (designed binder)
chain: B1 chain with E44Y, F58M
On to B43, for which the “apparent Kd (screen)” value amounted to 1.54 nM.

B44: L94N (designed binder)
chain: B1 chain with F58M, L94N
B44: the “apparent Kd (screen)” value was found to be 20.2 nM.

B45: K69F (designed binder)
chain: B1 chain with F58M, K69F
For the molecule B45, the “apparent Kd (screen)” value turned out to be 0.869 nM.

B46: K8R (designed binder)
chain: B1 chain with K8R, F58M
Consider B46, for which the “apparent Kd (screen)” value was 0.869 nM.

B47: L43P (designed binder)
chain: B1 chain with L43P, F58M
As for B47, the “apparent Kd (screen)” value came out at 12.5 nM.

B48: K23G (designed binder)
chain: B1 chain with K23G, F58M
As for B48, the “apparent Kd (screen)” value was 0.446 nM.

B49: K73S (designed binder)
chain: B1 chain with F58M, K73S
Turning to B49, the “apparent Kd (screen)” value was found to be 9.41 nM.

B50: V95D (designed binder)
chain: B1 chain with F58M, V95D
For the molecule B50, the “apparent Kd (screen)” value stood at 5.84 nM.

B51: L99I (designed binder)
chain: B1 chain with F58M, L99I
With B51, the “apparent Kd (screen)” value stood at 2.05 nM.

B52: K93N (designed binder)
chain: B1 chain with F58M, K93N
Regarding B52, the “apparent Kd (screen)” value came to 1.27 nM.

B53: A9D (designed binder)
chain: B1 chain with A9D, F58M
Regarding B53, the “apparent Kd (screen)” value was determined as 1.16 nM.

B54: E5H (designed binder)
chain: B1 chain with E5H, F58M
In the case of B54, the “apparent Kd (screen)” value amounted to 0.446 nM.

B55: D53H (designed binder)
chain: B1 chain with D53H, F58M
On to B55, for which the “apparent Kd (screen)” value worked out at 1.69 nM.

(Values after publication PMC12416549 (2024).)
